According to patent publication US20050222009A1, “Dual phase - PNA conjugates for the delivery of PNA through the blood brain barrier” (priority 2003, published 2005):

Test system: PC12 cells
Assay: Measurement of cellular toxicity by neutral red uptake
Type: cell-based, rat
Settings: 48 hours incubation (FIG. 2); compared with control PNA
Experimental: As an in vitro models for neurons and for BBB we used the human neuroblastoma NMB cell line the rat catecholaminergic cell line PC12 and the mice brain-derived endothelial cell line bEND. NMB cells were adapted to grow in Dulbecco modified Eagle medium (DMEM) with 10% Hyclone calf serum (Simantov et al., 1996). PC12 cells were grown in DMEM, 10% horse serum and 5% calf serum. bEND3 cells were grown in DMEM, %10 calf serum supplemented with 2 mM glutamine. Cells were maintained in a 10% CO2 humidified incubator at 37° C. Cells were routinely sub-cultured every four to five days. When cells (5×10^3) were plated in 96 wells, dishes were pretreated with poly-L-ornithine.
PC12 cells were incubated with PNA or peptide-PNA conjugates for 48 hours. At the end of the incubation, cell morphology was examined by light microscopy. Medium was replaced with medium containing neutral red. Neutral-red uptake was determined by spectrophotometer and was used as an index for cellular toxicity (FIG. 2).

Substance	neutral red uptake to PC12 cells (index for cellular toxicity)
CHK6HC-TTT GCT CTT ACT CAT-HAIYPRH [KBP11]	no significant difference
CHK6HC-TTT GCT CTT ACT CAT-THRPPMWSPVWP [KBP10]	no significant difference
